Test [1] concerns the target T1, hPR (Homo sapiens, UniProt P06401).
T1 construct: expressed in transfected cells; host or cells: HeLa
T1 sequence (P06401 1-933): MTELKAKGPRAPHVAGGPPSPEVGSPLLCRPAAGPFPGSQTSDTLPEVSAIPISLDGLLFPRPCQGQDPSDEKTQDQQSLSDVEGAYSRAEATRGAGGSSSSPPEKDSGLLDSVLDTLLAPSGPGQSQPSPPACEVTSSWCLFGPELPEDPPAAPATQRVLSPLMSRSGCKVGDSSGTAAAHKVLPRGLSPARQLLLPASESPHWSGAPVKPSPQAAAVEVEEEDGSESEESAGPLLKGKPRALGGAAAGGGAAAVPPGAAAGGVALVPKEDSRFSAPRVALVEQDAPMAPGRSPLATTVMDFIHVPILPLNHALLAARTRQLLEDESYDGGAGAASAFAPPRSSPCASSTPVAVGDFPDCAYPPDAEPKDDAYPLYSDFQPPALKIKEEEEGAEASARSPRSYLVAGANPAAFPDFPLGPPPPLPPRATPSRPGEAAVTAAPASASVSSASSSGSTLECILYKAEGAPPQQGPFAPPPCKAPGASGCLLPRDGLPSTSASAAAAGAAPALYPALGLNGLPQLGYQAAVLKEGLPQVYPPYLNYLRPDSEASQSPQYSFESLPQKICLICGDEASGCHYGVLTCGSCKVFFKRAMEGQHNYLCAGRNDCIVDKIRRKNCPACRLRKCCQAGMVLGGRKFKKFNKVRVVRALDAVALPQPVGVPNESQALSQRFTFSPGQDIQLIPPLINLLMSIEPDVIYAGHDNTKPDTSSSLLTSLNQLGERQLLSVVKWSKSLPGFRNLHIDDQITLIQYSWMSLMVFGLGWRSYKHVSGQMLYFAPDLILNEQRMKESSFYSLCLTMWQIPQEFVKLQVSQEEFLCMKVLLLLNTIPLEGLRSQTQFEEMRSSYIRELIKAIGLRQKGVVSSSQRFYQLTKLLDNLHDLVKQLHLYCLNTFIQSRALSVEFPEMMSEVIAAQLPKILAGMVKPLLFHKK
Kind of test: Transient transfection CAT reporter assay, hPRB with PRE2-TATA-CAT in HeLa cells. The format is cell-based. The conditions noted are these: HeLa cells, PRE2-TATA-CAT, 2×10^−8 M R5020, without SRC-1. Here is the method: (§1) Lipofectin (GibcoBRL) was selected for transfection of Hela cells.
To further investigate the role of SRC-1 in receptor transactivation of target gene expression, transient transfection assays were carried out in mammalian cell lines. HeLa cells were cotransfected with mammalian expression vectors for full-length SRC-1 and hPRB together with a plasmid containing two copies of the progesterone-responsive DNA element (PRE) inserted in front of the TATA box of the E1b adenovirus, linked to the chloramphenicol acetyl transferase (CAT) reporter gene, PRE2-TATA-CAT.
Cells were harvested 42 h after transfection and the chloramphenicol acetyl transferase (CAT) activity determined using 8 μg of protein extract.
For orientation: In a reporter assay the amount or activity of a reporter protein is the signal.

A further test addresses T2, GST-ER (Homo sapiens, UniProt P03372).
T2 construct: GST; made in house
T2 sequence (P03372 1-595): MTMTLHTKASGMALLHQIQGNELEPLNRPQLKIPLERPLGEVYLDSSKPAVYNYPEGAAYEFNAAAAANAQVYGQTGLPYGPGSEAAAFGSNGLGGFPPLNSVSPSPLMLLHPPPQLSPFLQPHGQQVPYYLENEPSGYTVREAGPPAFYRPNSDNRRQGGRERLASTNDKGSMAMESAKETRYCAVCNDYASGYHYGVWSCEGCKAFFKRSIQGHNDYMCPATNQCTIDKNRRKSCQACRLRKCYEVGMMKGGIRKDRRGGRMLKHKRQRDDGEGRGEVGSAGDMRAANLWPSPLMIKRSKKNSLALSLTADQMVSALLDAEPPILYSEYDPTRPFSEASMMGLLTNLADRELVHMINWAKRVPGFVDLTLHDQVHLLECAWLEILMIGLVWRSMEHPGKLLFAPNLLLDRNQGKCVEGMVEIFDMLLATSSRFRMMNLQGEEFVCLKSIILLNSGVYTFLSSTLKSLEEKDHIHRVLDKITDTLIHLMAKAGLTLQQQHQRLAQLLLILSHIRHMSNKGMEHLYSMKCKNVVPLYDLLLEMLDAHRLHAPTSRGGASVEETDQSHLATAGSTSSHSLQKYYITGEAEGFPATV
Kind of test: In vitro interaction with baculovirus expressed GST-ER. The format is binding. The source says: (§2) Thus, we investigated the effect of SRC-1 expression on the transcriptional activity of other intracellular receptors.

Another test concerns the target T3, GST-TR (Homo sapiens, UniProt P10828).
T3 construct: GST; made in house
T3 sequence (P10828 1-461): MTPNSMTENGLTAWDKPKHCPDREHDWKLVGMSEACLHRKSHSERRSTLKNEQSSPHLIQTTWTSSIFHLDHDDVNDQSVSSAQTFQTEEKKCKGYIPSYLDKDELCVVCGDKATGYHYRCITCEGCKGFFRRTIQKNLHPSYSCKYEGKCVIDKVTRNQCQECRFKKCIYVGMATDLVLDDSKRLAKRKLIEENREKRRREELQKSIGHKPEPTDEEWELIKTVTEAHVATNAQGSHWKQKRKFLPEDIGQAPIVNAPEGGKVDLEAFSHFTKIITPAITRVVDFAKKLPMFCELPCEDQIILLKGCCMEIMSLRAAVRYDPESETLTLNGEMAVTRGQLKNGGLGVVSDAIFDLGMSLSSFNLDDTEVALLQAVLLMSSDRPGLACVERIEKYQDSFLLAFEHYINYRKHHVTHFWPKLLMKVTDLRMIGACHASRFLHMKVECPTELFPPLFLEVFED
The test is described as follows: In vitro interaction with baculovirus expressed GST-TR. The test is classed as binding.
Text: as §2

For test [2], the target named is T1, hPR. The test is described as follows: Dominant-negative CAT assay PR/PRE2-tk-CAT with SRC-1(0.8). The format is cell-based. The conditions noted are these: Lmtk- cells. The protocol:
as §1
(§3) To further elucidate the mechanism of SRC-1 action, the effect of the N-terminal deletion mutant of SRC-1, SRC-1(0.8), on receptor transactivation was examined. The amino acid sequence from 865-1061, which contains the region that binds to the receptor, was cloned in frame to a mammalian expression vector that provided an exogenous AUG codon.
(§4) Lmtk^− cells were transfected with 5 μg of steroid receptors cDNAs expression vectors and their reporters, PR/PRE2-tk-CAT and TR§/DR4-tk-CAT, along with 10 μg of SRC-1(0.8) or empty expression vector and then treated with hormones (2×10^−8 M). The reporter CAT activity was determined using 60 μg of protein extract.

The target in a further test is T4, TR (Homo sapiens, UniProt P10828).
T4 sequence (P10828 1-461): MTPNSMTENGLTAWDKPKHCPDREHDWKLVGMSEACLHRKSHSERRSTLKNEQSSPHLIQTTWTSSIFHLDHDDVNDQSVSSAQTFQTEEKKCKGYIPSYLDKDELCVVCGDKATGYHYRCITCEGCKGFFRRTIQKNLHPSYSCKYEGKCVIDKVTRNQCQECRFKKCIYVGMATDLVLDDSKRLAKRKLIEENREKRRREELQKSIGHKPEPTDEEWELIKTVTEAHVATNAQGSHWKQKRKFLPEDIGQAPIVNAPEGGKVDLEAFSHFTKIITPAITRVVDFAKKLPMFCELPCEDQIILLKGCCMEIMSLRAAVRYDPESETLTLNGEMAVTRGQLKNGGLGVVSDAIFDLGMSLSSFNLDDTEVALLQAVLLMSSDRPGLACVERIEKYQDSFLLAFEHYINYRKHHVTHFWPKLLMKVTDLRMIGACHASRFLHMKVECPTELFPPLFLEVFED
The test is described as follows: Dominant-negative CAT assay TR/DR4-tk-CAT with SRC-1(0.8) in Lmtk- cells. The test is classed as cell-based. Set-up: expressed in transfected cells; host or cells: Lmtk- (mouse fibroblast) cells. The conditions noted are these: 10 μg SRC-1(0.8), hormone 2×10^−8 M. Here is the method:
as §1, §3, §4

Data on two molecules can be found in patent publication US6380373B1, “Steroid receptor coactivator compositions and methods of use” (Baylor College of Medicine, priority 1995, dated 2002).

Take `CCC(=O)[C@@]1(C)CC[C@H]2[C@@H]3CCC4=CC(=O)CCC4=C3CC[C@@]21C` [R5020, reference compound]: the “induction of hPR activity (CAT reporter)” value at hPR [1] is on record as roughly 5 fold.

B1: SRC-1(0.8): N-terminal truncated form of SRC-1, amino acids 865-1061, containing the receptor-binding region; dominant-negative repressor (protein, UniProt Q15788 865-1061, looked up, fragment)
chain: LNRLPELELEAIDNQFGQPGTGDQIPWTNNTVTAINQSKSEDQCISSQLDELLCPPTTVEGRNDEKALLEQLVSFLSGKDETELAELDRALGIDKLVQGGGLDVLSERFPPQQATPPLIMEERPNLYSQPYSSPSPTANLPSPFQGMVRQKPSLGTMPVQVTPPRGAFSPGMGMQPRQTLNRPPAAPNQLRLQLQQR
B1: the “interaction with GST-ER in vitro” value in the test with GST-ER is reported as “able to interact”. Besides, in the test with GST-TR, the “interaction with GST-TR in vitro” value is listed as “able to interact”. Further, the “effect on hormone induced transcriptional activity of hPR” value with hPR [2] (10 μg SRC-1(0.8), hormone 2×10^−8 M) is reported as “efficiently reduced”. For the same molecule, in the test with hPR [2] (no hormone), the “effect on the hormone-free receptor” value is given as “No major effect”. For the same molecule, in the test with TR, the “effect on ligand-induced transcriptional activity of TR” value was “inhibits”.
